Assay results: article PMC4615642 (RNA Biology, 2015)

Tests used:
[1] = target: the molecule itself; assay: SEC-MALS
[2] = target: T1, Myo4p-C (C-terminal cargo-binding region of Myo4p, amino acids 923-1471, His6 fusion) (S. cerevisiae, UniProt P32492 923-1471); assay: SEC-MALS
T1 sequence (looked up): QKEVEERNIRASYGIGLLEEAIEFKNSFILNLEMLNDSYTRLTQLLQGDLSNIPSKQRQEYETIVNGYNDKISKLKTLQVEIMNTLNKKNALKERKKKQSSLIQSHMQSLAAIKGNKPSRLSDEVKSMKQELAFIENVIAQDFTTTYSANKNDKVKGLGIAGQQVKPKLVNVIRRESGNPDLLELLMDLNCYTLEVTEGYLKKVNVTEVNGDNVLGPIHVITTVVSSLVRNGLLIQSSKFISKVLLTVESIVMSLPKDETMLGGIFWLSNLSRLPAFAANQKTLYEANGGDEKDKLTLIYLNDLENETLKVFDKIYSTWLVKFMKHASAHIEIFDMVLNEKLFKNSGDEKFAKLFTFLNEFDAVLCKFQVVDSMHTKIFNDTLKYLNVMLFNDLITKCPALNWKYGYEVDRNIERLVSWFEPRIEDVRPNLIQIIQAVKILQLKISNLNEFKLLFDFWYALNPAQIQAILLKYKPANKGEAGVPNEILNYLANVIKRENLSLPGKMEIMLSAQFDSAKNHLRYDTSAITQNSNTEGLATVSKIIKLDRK

- stoichiometry N [2]: 2 She3p per Myo4p
B1: She3p-His6 (full-length She3p) (natural protein, S. cerevisiae, UniProt P38272 1-425, looked up)
chain: MSDQDNTQTSSSKLAPHHNIFMANLESSPTKDRNTSSQNASSSRVIESLHDQIDMLTKTNLQLTTQSQNLLSKLELAQSKESKLLENLNLLKNENENLNSIFERKNKKLKELEKDYSELSNRYNEQKEKMDQLSKLAKNSSAIEQSCSEKLQNMEVNYNSLLESQNLYRDHYSDEISKLNEKIGLLELELSNQNLNYGSDTSSNSDIELNLNKFNDSVKDLKSLETEKDSKLSKIITHSLDELNLQSWLNLYQTNENLISTFAEKMDLKDVLKRNDEKISNKGAVVQTLKKNVQTQVESNNADALSSNNAQDMLPIKMVKLRKTPNTNDSSSNGNSSNNKRRSFYTASPLLSSGSIPKSASPVLPGVKRTASVRKPSSSSSKTNVTHNNDPSTSPTISVPPGVTRTVSSTHKKKGNSMVVHGAQS
- stoichiometry N [1]: 2
